Laboratory results reported in PMC11036628.

Biological target: Dectin-1 (mouse (endogenous in bone marrow-derived dendritic cells)) (UniProt Q6QLQ4)
Chain of UniProt Q6QLQ4 (Q6QLQ4 whole entry): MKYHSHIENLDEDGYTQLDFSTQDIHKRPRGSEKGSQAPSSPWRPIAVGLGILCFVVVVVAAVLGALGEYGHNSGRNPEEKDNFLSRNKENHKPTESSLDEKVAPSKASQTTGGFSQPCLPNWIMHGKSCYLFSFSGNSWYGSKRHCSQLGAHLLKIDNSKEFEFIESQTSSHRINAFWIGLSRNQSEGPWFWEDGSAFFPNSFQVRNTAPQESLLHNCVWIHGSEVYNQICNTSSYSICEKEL

IL-10 transcripts by quantitative PCR on NLGP addition to tumour-conditioned mBMDCs; counterbalanced by Laminarin, Dectin-1 siRNA and both: 4.5 fold
IL-12p35 transcripts by quantitative PCR on NLGP addition to tumour-conditioned mBMDCs; counterbalanced by Laminarin, Dectin-1 siRNA and both: 1.5 fold
Substance: Neem Leaf Glycoprotein (natural protein)
